# Test results: the nanobody polyreactivity screen of Harvey et al. (2022)
# Assay: yeast display, Sf9 membrane polyspecificity reagent, FACS + sequencing; frameworks hold sequencing errors
# Outline: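 A synthetic nanobody library was expressed on Saccharomyces cerevisiae BJ5465 by galactose induction for 36–48 hours. The library was stained for 1 hour at 4 °C with 10% biotinylated, detergent-solubilized Sf9 membrane reagent and enriched with streptavidin microbeads before FACS. Low and high (top ~1%) gates were set on anti-HA fluorescence for expression and streptavidin fluorescence for reagent binding, and each polyreactivity label reflects the gate of origin.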
row,Sequence,polyreactivity (PSR sort gate)
1,QVQLVESGGGLVQAGGSLRLSCAASGRTFRTYAMGWYRQAPGKERELVAAITTSGSSTYYADSVKGRFTISRDNAKNTVYLQMNSLKPEDTAVYYCAAARAAIVPGYYSWGQGTQVTVSS,low polyreactivity
2,QVQLVESGGGLVQAGGSLRFSSAASGRTFSSNAMGWYIQAPGKERELVAAISNSGSSTYYADSVKGRFTISRDNAKNTVYLQMNSLKPEDSAVYYCNAVGVYYWWYRLYDYWGQGTQVTVSS,high polyreactivity
3,QDQLVESGGGLVQAGGRLRLSCAASGRTFYWNAMGWNRQAPGKEREMVAAITRGGSTTYADSVKGRFTISRDNAKNTVYLQMNSLKPEDTAVYYCNKVYSLWPGYRYDYWGQGTQVTVSS,high polyreactivity
4,QVQLVESGGGLVQAGGSLRLSCAASGSTFYYNGMGWYRQAPGKEREFVAAITSSGTSTHYADSVKGRFTISRDNAKNTVYLQMNSLKPEDTAVYYCNRYGAHVSTAYYYWGQGTQVTVSS,high polyreactivity
5,QVQLVESGGGLVQAGGSLRLSCAASGSIFWIYAMGWYRQAPGKERELVARITWTGGRTYYADSVKGRFTISRDNAKNTVYLQMNSLKPEDTAVYYCAVTSYRQRGAFDYWGQGSQVTVSS,high polyreactivity
6,QVQLVESGGGLVQAGGSLRLSCAASGSIFDVYAMGWYRLAPGKERELVAAINWTGGSTYYADSVKGRFTISRDNAKNTVYLQMNSLKPEDTAVYYCAASYYYGTEHYDYWGQGTQVTVSS,low polyreactivity
7,QVQLVESGGGLVQAGGSLRLSCAASGFTFVAYAMGWYRQAPGKERELVAALRRTGGSSSYADSVKGRFTISRDIAKNTVYLQMNRLKPEDTSVYYCNKVRLISGVYWSYQAFGYWGQGTQVTVSS,high polyreactivity
8,QVQLVESGGGLVQAGGSLRLSCAASGIIFDFYAMGWYRPAPGKERELVAAITSSGGSTYYADSVKGRFTISRDNAKNTVYLQMNSLKPEDTAVYYCAAEYTIYGTDQRYNYWGQGTQVTVSS,low polyreactivity
9,QVQLVESCGGLVQAGGSLRLSCAASGFTFWRYAMGWYRQAPGKERELVAAISRTGGRTYYADSVKGRFTISRDNAKNTVYLQMNSLKPEDTAVYYCAAVKYETYRYNYDYWGQGTQVTVSS,high polyreactivity
10,QVQLVESGGGLVQAGGSLRLSCAASGSTFDYYAMGWYRQTPGKERELVAAISWSGGSTYYADSVKGRFTISRDNAKNTVYLQMNSLKPEDTAVYYCAAATNWGGEYWGQGTQVTVSS,high polyreactivity
11,QVQLGESGGGLVQAGGSLRLICAASGRTIRQYAMGRYRQAPGKERELVAAIDSGGSTYYADSVKGRFTISRDNAKNTVYLQMNSLKPEYTAVYYCAKGPSWKYYSYTLDYWGQGTQVTVSS,low polyreactivity
12,QVQLVESGGGLVQAGGSLRLSCAASGRIFGYYVMGWYRQAPGKERELVAAISRSGGSTYYADSVKGRFTISRDNAKNTVYLEMNSLKPEDTAVYYCANYSPRYPNYDYWGQGTQVTVSS,high polyreactivity
13,QVQLVESGGGLVQGGGSLRLSCAASGLIFARNAMGWYRQAPGKERELVAAISKRGGSTFYADSVKGRFTISRDNAKKTVYLQMNSLKPEDTAVYYCHARSSETWHGDYWGQGTQLTVSS,high polyreactivity
14,QLQLVETGGGLVQAGGSLRLSCAASGRIFQYYVMGWYRQAPGKERELVAAITSGGSTYYADSVKGRFTISRDNAKNTVYLQMNSLKPEDTAVYYCAAGYWYNFDYWGQGTQVTVSS,high polyreactivity
15,QVQLVDSGGGLVQAGGSLRLSCAASGSIFGYYAMGWYRQAPGKERELVAAINSGSSTNYADSVKGRFTISRDNAKNTVYLQMNSLKPEDTAVYYCNKDPWYVFHPRGLFLFDYWGQGTQVTVSS,low polyreactivity
16,QVQLVESGGGLVQAGGSLRLSCAASGLIFSSYAMGWYSQAPGKERELVAAITSGGNTNYADSVKGRFTISRDNAKNTVYLHMNSLKPEDTAVYYCSAVWWTYVAAPGYDYWGQGTQVTVSS,low polyreactivity

row,Sequence,polyreactivity (PSR sort gate)
1,QVQLVESGGGLFQAGGSLRLSCAASGSTSRYPMGWYRQAQGQERELVAAITRSGGTTYYADSVKGRFTISRDNAKNTVYLQMYSLKPEDTAVYYCATSDRQVKYDYWGQGTQVTVSS,low polyreactivity
2,QVQLVESGGGLVQAGGSLRLSCAASGRIFARNAMGWYRQAPGKERELVAAITYSGGSTYYADSVKGRFTISRDNAKNTVYLQMNSLKPEDTAVYYCAAETSNRGRRYYYWGQGTQVTVSS,high polyreactivity
3,QVQLVESGGGLVQAGGSLRLSCAASGGIYLDYAMGWYRQAPGKERELVADINSGADTSYADSVKGRFTISRDNAKNTVYLQMNSLKPEDTAVYYCADDIYVFNGQVYSYGYGYWGQGTQVTVSS,low polyreactivity
4,QVQLVESGGGLVQAGGSLRLSCAASGYISRYNTMGWYRHAPGKERELVAAITWSGGSTYADSVKGRFTISRDNAKNTVYLQMNSLKQEDTAVYYCAAGAYIWDNYSYRWYDYWGQGTQVTVSS,high polyreactivity
5,QVQLVESGGALVQAGGSLRLTSAASGFTFFRNAMRWYRQAPGKERELVAAINWSGGSTYYADSVKGRFTISRDNAKNTVYLQMHSLKPEDTAVYFCAADLSSTESDYWRQGTQVTVSS,high polyreactivity
6,QVQLVESGGGLVQAGGSLRLSCAASGRNFGVYAMGWYRQAPGKERELVARIRGSGASTYYADSVKGRFTISRDNAKNTVYLQMNSLKPEDTAVYYCAAVTVAGYDYWGQGTQVTVSS,high polyreactivity
7,QVQLVESGGGLVQAGGSLRLSCAASGIIFRWYAMGWYRQAPGKERELLAAITSSGGRTYYADSVKGRFTISRDNAKNTVYFQMNSLKPEDSAVYYCAASYYIVGWDPYDYWGQGTQVTVSS,high polyreactivity
8,QVQLVESGGGLVQAGGSLRLSCAASGRIFDPNAMGWYRQAPGKERELVARIRWWSDGSTYYADSVKGRFTISRDNAKNTVYLQMNSLKPEDTAVYYCATTANRVYGYAPWFGPRSEYWGQGTQVTVSS,high polyreactivity
9,QVQLVESGGGLVQAGGSLSLSCAASGLIFLQYGMGWYREAPGKERELVAAITTRGGRTYYADSVKRRFTISRDNAKNTVYLQMNSLKPEDTAVYYCAADSEQDNLRYYRWVWYYYWGQGTQVTVSS,low polyreactivity
10,QVQLVESGGGLVQAGGSLRLSCAASGRTFAAYAMGWYRQAPGKERELVATIRRGGTTDYADSVKGRFTISRDNAKNTVYLQMNSLKPEDTAVYYCNARSRTYRTRRYDYWGQGTQVTVSS,high polyreactivity
11,QVQLVESGGGLVQAGGSLRLSCAASGSILTDNAMGWYRQAPGKERELVAAITSSGNTNYADSVKGRFTISRDNAKNTVYLQMKSLKPEDTAVYYCAAVSYYKHWTDWLPVGEDYWGQGTQVTVSS,low polyreactivity
12,QVQLVESAGGLDQAGGSLRLICAASGGTFSFYAMGWYRHAPGKEREFVAAITASDGSTYADSVKGRFTISRDNAKNTVYLQMNSLKPEDTAVYYCAVAGGEFSSYGYWGQGTQVTVSS,low polyreactivity
13,QVQRVESGGGLVQAGGRLRLSCAASGLIFAHDARGWYRQAPGKERELVAGINRSGGSTYYADSVKGRFTISRDNAKNTVYLQTNSLKPEDTAVYYCAARRAYPRPGYDYWGQGTQVTVSS,high polyreactivity
14,QVQLVESGGGLVQAGGSLRLSCAASGRTFSGYAMGWYRPAPGKERELVAAITSGGNTYYADSVKGRFTISRDNAKNTVYFQMNILKPEDTAVYYCATVYADESGIEGYSWGQGTQVTVSS,low polyreactivity
15,QVQLVESGGGLGQAGGSLRLSCAASGGTFYAYAMGWYRQAPGKEREFVAAISRRGGSTYYADSVKGRFTISRDNAKNTVYLQMHSLKPEDNAVYYCKALYSSSPGAKPWGEYNYWGQGTQVTVSS,high polyreactivity
